From patent US20130243722A1

What was measured:
Experiment in all cases: cell-based or functional assay
[1] = molecular target: murine IL-12 receptor on mouse CD14- PBMC (mouse) (UniProt P97378)
[2] = molecular target: rat IL-12 receptor on rat PBMC (rat)
[3] = molecular target: rhesus monkey IL-12 receptor on rhesus monkey CD14- PBMC (rhesus monkey) (UniProt F6X0C8)
Chain of rhesus monkey IL-12 receptor on rhesus monkey CD14- PBMC (rhesus monkey) (F6X0C8 entry or part of it): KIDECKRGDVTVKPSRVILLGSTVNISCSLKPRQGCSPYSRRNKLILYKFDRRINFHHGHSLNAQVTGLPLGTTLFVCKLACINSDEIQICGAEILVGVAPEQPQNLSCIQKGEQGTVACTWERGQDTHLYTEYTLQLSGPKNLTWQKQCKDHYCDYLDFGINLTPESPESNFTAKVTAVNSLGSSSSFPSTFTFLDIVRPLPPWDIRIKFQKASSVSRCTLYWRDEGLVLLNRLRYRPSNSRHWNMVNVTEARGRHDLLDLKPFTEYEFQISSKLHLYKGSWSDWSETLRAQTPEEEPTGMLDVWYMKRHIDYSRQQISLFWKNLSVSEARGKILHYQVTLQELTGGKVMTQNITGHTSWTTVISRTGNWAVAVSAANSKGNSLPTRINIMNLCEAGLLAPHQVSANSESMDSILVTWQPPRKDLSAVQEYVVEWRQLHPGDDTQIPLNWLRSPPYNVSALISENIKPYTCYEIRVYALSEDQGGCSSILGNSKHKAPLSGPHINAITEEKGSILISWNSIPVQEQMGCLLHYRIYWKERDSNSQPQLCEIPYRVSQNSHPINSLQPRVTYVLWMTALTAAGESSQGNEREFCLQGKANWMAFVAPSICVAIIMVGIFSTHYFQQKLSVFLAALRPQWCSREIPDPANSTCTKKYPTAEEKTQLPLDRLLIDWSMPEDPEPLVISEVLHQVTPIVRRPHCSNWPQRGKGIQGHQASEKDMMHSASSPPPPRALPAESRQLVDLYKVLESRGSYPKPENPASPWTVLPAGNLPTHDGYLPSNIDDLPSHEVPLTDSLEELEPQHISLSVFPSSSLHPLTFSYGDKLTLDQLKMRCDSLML

Chain of murine IL-12 receptor on mouse CD14- PBMC (mouse) (P97378 24-874): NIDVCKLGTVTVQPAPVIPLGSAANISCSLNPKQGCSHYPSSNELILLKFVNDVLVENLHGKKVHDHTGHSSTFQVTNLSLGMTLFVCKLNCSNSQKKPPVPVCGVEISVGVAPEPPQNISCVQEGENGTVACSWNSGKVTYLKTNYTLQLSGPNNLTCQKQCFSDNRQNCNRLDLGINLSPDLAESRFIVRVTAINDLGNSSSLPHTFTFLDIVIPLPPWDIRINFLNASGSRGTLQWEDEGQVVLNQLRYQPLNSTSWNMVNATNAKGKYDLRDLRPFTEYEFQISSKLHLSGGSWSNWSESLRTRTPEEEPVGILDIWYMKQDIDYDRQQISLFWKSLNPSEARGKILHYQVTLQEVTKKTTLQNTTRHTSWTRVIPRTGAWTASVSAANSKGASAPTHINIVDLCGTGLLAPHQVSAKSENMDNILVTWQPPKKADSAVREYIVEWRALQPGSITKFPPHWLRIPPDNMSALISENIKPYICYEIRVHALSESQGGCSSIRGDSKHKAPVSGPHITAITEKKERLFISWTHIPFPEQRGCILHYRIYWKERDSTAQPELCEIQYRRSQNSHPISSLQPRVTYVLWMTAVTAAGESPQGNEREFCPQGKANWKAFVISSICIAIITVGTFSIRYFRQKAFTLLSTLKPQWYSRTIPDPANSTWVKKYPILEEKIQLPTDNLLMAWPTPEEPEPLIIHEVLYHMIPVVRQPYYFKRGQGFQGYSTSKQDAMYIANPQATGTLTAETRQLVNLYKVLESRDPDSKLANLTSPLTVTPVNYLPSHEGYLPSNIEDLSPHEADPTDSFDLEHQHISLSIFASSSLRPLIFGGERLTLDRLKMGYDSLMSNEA

EC50 for stimulating IFN-γ secretion from PBMC [1] [pM]	EC50 for stimulating IFN-γ secretion from PBMC [2] [pM]	EC50 for stimulating IFN-γ secretion from CD14- PBMC (ELISA, 16 hours) [3] [pM]	EC50 for stimulating IFN-γ secretion from CD14- PBMC (ELISA, 16 hours) [1] [pM]	Substance
> 1000	> 1000	1.05		recombinant human IL-12 (from UniProt P29459 23-219; P29460 23-328) (ligand)
			0.35	recombinant murine IL-12 (from UniProt P43431 23-215; P43432 24-335) (ligand)
